{"source": "the DeepSol protein solubility set"}
{"assay": "soluble on expression in E. coli; label from the status in PepcDB or PDB records"}
{"sequence": "MSHLPLLALSPLDGRYLSKVDTLRPIFSEYGLIKSRVKVEIAWLLALAAEPNIVELAPFSVAAQTRLRVLADGLTIEHAARVKEIEHTTNHDVKAVEYFIKEQLKDDIELRRGLEFVHFACTSEDINNLSYSLMLQQARDDVLLPTLDGIATHLRTLAHAQAAQPMLSRTHGQTASPTTLGKEIANVVARLERQRHQIATIALSGKINGAVGNYNAHTISYPEVNWPALAQRFVESLGLVFNPYTTQIEPHDTIAEISDAIRRANTILIDLARDLWGYISLGYFKQKLKEGEIGSSTMPHKVNPIDFENAEGNFGVANALFEHFSTKLPISRWQRDLTDSTVLRALGTAFGHTQVALDSLNKGLHKLSPNPERIDADLDAAWEVLAEAVQTIMRRHNLPNPYEQLKALTRGQGITADSMRAFIETLDLPTEAKQRLHDLTPRAYTGLAKQLALNI", "soluble on expression in E. coli": "not soluble"}
{"sequence": "MSHTAEIPMVPGSESPLELKPLKAVDPKAVYHRRAQRLLSLAKDSPLADYFELCRRVVAIQARLAAEADFGQLLAWGKDEAIPLSHLGSEADSYWQGLLQQLLSDLLPQVGEDLARVLRLLMQQSPEQLTSWGASLRQGHMSAVPARFSLFIWAAMGVYWSHWAPMVIKRIDQRKVAQQNLCPICGSHPVASVIVDQPRAGLRYLHCSLCESEWHYIRAHCTSCGQDKGTTLWSFDDTQAQVRIESCDECHGYTKMMFVEKSPLMDVVADDLATLMLDSELNAKGFGATTVNPLLLAHETEQ", "soluble on expression in E. coli": "not soluble"}
{"sequence": "MSIAVGMIETLGFPAVVEAADSMVKAARVTLVGYEKIGSGRVTVIVRGDVSEVQASVTAGIENIRRVNGGEVLSNHIIARPHENLEYVLPIRYTEAVEQFREIVNPSIIRRAAALEHHHHHH", "soluble on expression in E. coli": "soluble"}
{"sequence": "MSIDKSPREHWASHQERGSFMLMKLTAWGMRVLGRRLLTPVQYGIVLYFFVFGRRARHSIWEYQQRLADWSARPELRPSQRRVFGQFMAFAEALLDKLDVWNGRLGIEQIEIIDPALLRQSLRGARGQMLVGAHLGNLEVCRALAELGEKITMNVLVHTKHAERFNRLLGEAGATNLRLIQVSELDPAIMLQLSQRLDEGEWLAIAGDRVALHGGRNVRVDFLGQPATFPQGPWLLAGLLKCPVNLFFCLKGPKGYRVILEPFADAIEWRRSDRAQVIAHWATRYAERLGHYCLEAPQQWFNFYPFWKSDDESSS", "soluble on expression in E. coli": "not soluble"}
{"sequence": "MSIDRTSPLKPVSTVQTRETSDTPVQKTRQEKTSAATSASVTLSDAQAKLMQPGVSDINMERVEALKTAIRNGELKMDTGKIADSLIREAQSYLQSK", "soluble on expression in E. coli": "not soluble"}
{"sequence": "MSIEGGNYRRIRNFVDRECAKECIEDFSCFGYEWNSEEKICYLKSRSTSGKLIAKPNTMVGFCQDDEDEVRYRLQDHVIVGPIVMEADDVPDGEECKENCRKVGALYYSWRPNSDNQRSNVVPVEEEEDDEEQEVLGHCECISTMNELRLEYDAFSGFIPIPKHKHRRSILLRPFEI", "soluble on expression in E. coli": "not soluble"}
{"sequence": "MSIIAINENGFLDKIKGRNPLFTCVISSIETTLSIPISGVHRDVIKYTPSADVELVFYGKSLTLKTPPIDATGSPTPATITRACVELKNIKNLHIDAGAFVKPKIPFIEIDEKPTGRIEEGKAMNNSKELYMKGYLLGKNLDAELLIVGESVPGGTTTALGVLLGLGYDAEGKVSSGSINNPHELKIKVVREGLKKAGINEKSSVFDVLNAVGDKMMPVVAGLAISFAERNKPVILAGGTQMSAVLAVIKEINKKVLDKNLIAIGTTEFVLNDKKGDLKGIVEQIGNVPVLASKFYFEKAKIEGLKNYCKGSVKEGVGAGGIAVYSIVNDLEPTKIREFIENKFYEWYKE", "soluble on expression in E. coli": "soluble"}
{"sequence": "MSIIGRFKDIMSANINALLDKAENPEKMVDQYLRNMNSDLAKVKAETAAVMAEEQRAKREYHECQADMEKMESYAMKALQAGNESDARKFLERKTSLESKLSELQAANQIAATNAAQMRKMHDKLVSDIGELEARKNMIKAKWAVAKTQERMNKLGASVSSTSQSMSAFGRMEDKVNKALDQANAMAELNSAPQDDMADLSAKYDTGGSSQVDDELAALKAKMMLDKLEHHHHHH", "soluble on expression in E. coli": "not soluble"}
{"sequence": "MSITDVLSADDIAAALQECRDPDTFEPQKFFQTSGLSKMSANQVKDVFRFIDNDQSGYLDEEELKFFLQKFESGARELTESETKSLMAAADNDGDGKIGAEEFQEMVHS", "soluble on expression in E. coli": "soluble"}
{"sequence": "MSITLITAAPGAGKTIFAVWNIIKPAVEADRVVYTAGIPELKLPAISLSYSQVKRWADRELVEVENPSGIPIPDDEKPSRLQNITEGALIVIDEVQYLWPASGSREPGEDIKYLTKHRHHGLEFVLITQAPQLIHKNVLAVVDKHIHMLSDWHGRKRYEWPEYCATVRATSSKLKAVSQRYELPKEAYGLYRSASMHI", "soluble on expression in E. coli": "not soluble"}
{"sequence": "MSITSPVSNTWAPTVKGPHGTQSKIDTKSLSPNLSRAELRKQVRLARRSLSTEVQAEASINACERMLKKLMAMNAQHVALYLTHDGELATAPLIAALWQRGIQTYLPRLHPFNAGQLLFLHYHADSPMQPNQYGILEPKLDVRSVMPIERLDVVVTPLVAFDIKGNRMGMGGGYYDRTLANWQDNGKPLPMGYAHDCQQVPSLPCEHWDVPLPAIITPSRVWEFLEHHHHHH", "soluble on expression in E. coli": "soluble"}
{"sequence": "MSIVMSAGKGVTQVVERCEAAKESGFLDLSSCQLMYMADAVYMLIKGYEITKVSIQDNGFKKFPKKFVIKFPTATILNMANNEISEIPEEVATWTSLKGLNAAKNKISKFPEPFLQLKNLIYLDLNGNQLEEIDVDLFYSSLPALIKLNLSGNEGLGDETKKKLKALKPEKLDLIL", "soluble on expression in E. coli": "not soluble"}
{"sequence": "MSIVVKKWNELAEVKAELAARDWFFATSGNLSIKVTDDPLTFLVTASGKDKRKQTEEDFLLVDAAGKPAEETNLKPSAETLLHAEIYGRTNAGCVLHVHTVDNNLISELYAQNGEAVFSGQEIIKAFGIWEENAAVRIPIIDNYADIPTLAREFANYIHGDAGAVLIQNHGITVWGRTAFEAKKHLEAWEFLFRWQVKRLLLQRAGLPVG", "soluble on expression in E. coli": "not soluble"}
{"sequence": "MSIYTLGIDVGSTASKCIILKDGKEIVAKSLVAVGTGTSGPARSISEVLENAHMKKEDMAFTLATGYGRNSLEGIADKQMSELSCHAMGASFIWPNVHTVIDIGGQDVKVIHVENGTMTNFQMNDKCAAGTGRFLDVMANILEVKVSDLAELGAKSTKRVAISSTCTVFAESEVISQLSKGTDKIDIIAGIHRSVASRVIGLANRVGIVKDVVMTGGVAQNYGVRGALEEGLGVEIKTSPLAQYNGALGAALYAYKKAAKSAWSHPQFEK", "soluble on expression in E. coli": "soluble"}
{"sequence": "MSKAFVDGLLQSSKVVVFSKSYCPYCHKARAALESVNVKPDALQWIEIDERKDCNEIQDYLGSLTGARSVPRVFINGKFFGGGDDTAAGAKNGKLAALLKETGAL", "soluble on expression in E. coli": "not soluble"}
{"sequence": "MSKKFFLSLGLVALLFSNSQAIDENLIKAAQAEGRVNSLAMPDTWANWKDTWADLKNLYDIEHSDTDMSSAQEIAKFKTEKKNASGDIGDVGASFGEIAVKQGVAQPFKTSYWDQIPTWAKDKDGNWLLAYTGTIAFIVNKDVVKDIPKTWQDLLKGNYKITVGDVSVAAQAVSAVLAANYALGGDEKDLSPALAFFNTLAKQGRLVNNDVSIANLEKGEVEVGLVWDFNGLGYRDKVGKDRYEVLIPADGSVISGYTTIINKYAKHPNAAKLAREFILSDKGQINLAKGYARPIRIDHITLPDDIKAKLLPSEQYKNARAIKDQKAWEKSAKELPQLWQEKVIVDMK", "soluble on expression in E. coli": "not soluble"}
{"sequence": "MSKKVAIVGAGPGGLATAIRLAGLGYQVEIFEAAERVGGRMRGFEVDSYAFDTGPTILQLPHLYKELFEEAGLNFADYVQLKRLEPYTRLKFWDGTQLDITSDLQSFKTQLATLRSDLPLAFDRWYSEHIRKYELGYKPYLAGPARSIFGYLRPDELMKFLSFRPWENLYQHFWRFFQDERLVYALSYPSKYLGMHPTVASSVFSLIPFLEFSQGVWHPVGGFRALAQGLANAAQDLGVKIHLHSPVHQIWIEQGQVRGLELADASRHQFDTVVINADFAYAVRHLLPTSARGRYTDNKLGQMQFSCSTFMLYLGINRRYEDLPHHQIYLSDNIRRLERPWVDDSALDETDPPFYVCNPTIIDPSNAPAGHSTLFVLVPIPNTSYAVDWDIKQKSYTDFILKRLHLLGYHNIEQHIVTQSCYTAQSWLDDYRVHLGAVFNLSHNLTQLGPFRPPIRSENIAGLYWIGGAVHPGSGLLTILEASRSAAGFIHQDFASTGSLEHHHHHH", "soluble on expression in E. coli": "not soluble"}
{"sequence": "MSKLEELDIVSNNILILKKFYTNDEWKNKLDSLIDRIIKAKKIFIFGVGRSGYIGRCFAMRLMHLGFKSYFVGETTTPSYEKDDLLILISGSGRTESVLTVAKKAKNINNNIIAIVCECGNVVEFADLTIPLEVKKSKYLPMGTTFEETALIFLDLVIAEIMKRLNLDESEIIKRHCNLL", "soluble on expression in E. coli": "soluble"}
